# Test results published in PMC10348947, “Catalytic antibodies in arrhythmogenic cardiomyopathy patients cleave desmoglein 2 and N-cadherin and impair cardiomyocyte cohesion” (Cellular and Molecular Life Sciences: CMLS, 2023).
# B1: Recombinant human N-cadherin extracellular domain tagged with Fc fragment (N-CAD-Fc) (Fc fusion, UniProt P19022 160-724, looked up)
# chain: DWVIPPINLPENSRGPFPQELVRIRSDRDKNLSLRYSVTGPGADQPPTGIFIINPISGQLSVTKPLDREQIARFHLRAHAVDINGNQVENPIDIVINVIDMNDNRPEFLHQVWNGTVPEGSKPGTYVMTVTAIDADDPNALNGMLRYRIVSQAPSTPSPNMFTINNETGDIITVAAGLDREKVQQYTLIIQATDMEGNPTYGLSNTATAVITVTDVNDNPPEFTAMTFYGEVPENRVDIIVANLTVTDKDQPHTPAWNAVYRISGGDPTGRFAIQTDPNSNDGLVTVVKPIDFETNRMFVLTVAAENQVPLAKGIQHPPQSTATVSVTVIDVNENPYFAPNPKIIRQEEGLHAGTMLTTFTAQDPDRYMQQNIRYTKLSDPANWLKIDPVNGQITTIAVLDRESPNVKNNIYNATFLASDNGIPPMSGTGTLQIYLLDINDNAPQVLPQEAETCETPDPNSINITALDYDIDPNAGPFAFDLPLSPVTIKRNWTITRLNGDFAQLNLKIKFLEAGIYEVPIIITDSGNPPKSNISILRVKVCQCDSNGDCTDVDRIVGAGLGTGA
# notes: N-cadherin (N-CAD), human, extracellular domain-containing protein; The Western blot and cleavage assay used Sino Biological #11039-H03H, probably the same protein; The chain was covalently linked through a PEG linker to the AFM tip and the mica sheet; also called hN-CAD-Fc
# Biological target: the molecule itself
# Experiment: atomic force microscopy (cell-free force spectroscopy); the same Fc construct covalently linked via a PEG linker to the AFM tip and to the mica sheet; 37 °C; HBSS buffer; loading force 0.3 nN, contact delay 0.1 s, retraction velocity 1 µm/s; 1000 force-distance curves for the baseline trans-interaction probability, then 1 h with patient or control IgG (1:50)
protein,measurement,value
B1,binding result,binds
